Measured values from patent US20120324602A1.

What was measured:
[1] = molecular target: BSH (Arabidopsis thaliana); test: TAP-MS, N-terminal GS tag
[2] = molecular target: CRU3 (CRUCIFERIN 3) (Arabidopsis thaliana); test: TAP-MS, N-terminal GS tag
[3] = molecular target: CKA2 (casein kinase II alpha chain 2) (Arabidopsis thaliana); test: TAP-MS, N-terminal GS tag
[4] = molecular target: DNA-binding bromodomain-containing protein (AT1G20670) (Arabidopsis thaliana); test: TAP-MS, N-terminal GS tag
[5] = molecular target: CRU1 (CRUCIFERINA) (Arabidopsis thaliana); test: TAP-MS, N-terminal GS tag
[6] = molecular target: unknown, similar to At5g55210 (AT4G22320) (Arabidopsis thaliana); test: TAP-MS, N-terminal GS tag
[7] = molecular target: SWI3B (Arabidopsis thaliana); test: TAP-MS, N-terminal GS tag
[8] = molecular target: SNF2 protein (BRM) (Arabidopsis thaliana); test: TAP-MS, N-terminal GS tag
[9] = molecular target: SWI3A (Arabidopsis thaliana); test: TAP-MS, N-terminal GS tag
[10] = molecular target: unknown protein (AT1G06500) (Arabidopsis thaliana); test: TAP-MS, N-terminal GS tag
[11] = molecular target: T1, actin-related protein 7 (ARP7) (Arabidopsis thaliana); test: TAP-MS, N-terminal GS tag
T1 sequence (Q8L4Y5 1-363, looked up): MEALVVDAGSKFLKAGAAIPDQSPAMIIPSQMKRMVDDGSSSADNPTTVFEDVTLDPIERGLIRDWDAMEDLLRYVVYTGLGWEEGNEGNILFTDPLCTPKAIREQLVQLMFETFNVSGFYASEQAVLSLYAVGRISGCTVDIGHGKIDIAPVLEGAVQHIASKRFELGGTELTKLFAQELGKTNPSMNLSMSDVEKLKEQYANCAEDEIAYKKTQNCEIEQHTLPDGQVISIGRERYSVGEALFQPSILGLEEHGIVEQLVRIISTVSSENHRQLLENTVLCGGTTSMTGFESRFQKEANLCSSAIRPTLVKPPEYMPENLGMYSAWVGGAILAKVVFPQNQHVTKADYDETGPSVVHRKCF

[12] = molecular target: CHR12 (Arabidopsis thaliana); test: TAP-MS, N-terminal GS tag
[13] = molecular target: electron carrier (AT1G32730) (Arabidopsis thaliana); test: TAP-MS, N-terminal GS tag
[14] = molecular target: RD21 (RESPONSIVE TO …ON 21) (Arabidopsis thaliana); test: TAP-MS, N-terminal GS tag
[15] = molecular target: DNA-binding bromodomain-containing protein, similar to At1g20670 (AT5G55040) (Arabidopsis thaliana); test: TAP-MS, N-terminal GS tag
[16] = molecular target: SWI3D (Arabidopsis thaliana); test: TAP-MS, N-terminal GS tag
[17] = molecular target: expressed protein, similar to At3g03460 (AT5G17510) (Arabidopsis thaliana); test: TAP-MS, N-terminal GS tag
[18] = molecular target: T2, actin-related protein 4 (ARP4) (Arabidopsis thaliana); test: TAP-MS, N-terminal GS tag
T2 sequence (Q84M92 1-441, looked up): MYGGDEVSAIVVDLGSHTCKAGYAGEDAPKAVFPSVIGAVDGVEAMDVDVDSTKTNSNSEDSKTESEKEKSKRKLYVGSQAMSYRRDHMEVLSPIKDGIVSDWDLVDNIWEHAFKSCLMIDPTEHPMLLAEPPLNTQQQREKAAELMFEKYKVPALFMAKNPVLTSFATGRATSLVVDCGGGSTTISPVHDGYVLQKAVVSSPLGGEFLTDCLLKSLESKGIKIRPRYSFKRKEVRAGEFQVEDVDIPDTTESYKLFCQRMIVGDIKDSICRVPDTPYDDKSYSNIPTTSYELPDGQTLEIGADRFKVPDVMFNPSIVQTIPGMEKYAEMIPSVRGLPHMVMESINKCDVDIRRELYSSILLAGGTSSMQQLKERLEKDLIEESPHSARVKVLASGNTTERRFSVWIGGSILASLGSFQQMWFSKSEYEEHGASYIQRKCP

[19] = molecular target: transcription factor (AT3G18380) (Arabidopsis thaliana); test: TAP-MS, N-terminal GS tag
[20] = molecular target: expressed protein, similar to At4g22320 (AT5G55210) (Arabidopsis thaliana); test: TAP-MS, N-terminal GS tag
[21] = molecular target: LFR (armadillo-repeat protein) (Arabidopsis thaliana); test: TAP-MS, N-terminal GS tag
[22] = molecular target: T3, SWIRM domain-containing protein (SWI3C) (Arabidopsis thaliana); test: TAP-MS, N-terminal GS tag
T3 sequence (Q9XI07 1-807, looked up): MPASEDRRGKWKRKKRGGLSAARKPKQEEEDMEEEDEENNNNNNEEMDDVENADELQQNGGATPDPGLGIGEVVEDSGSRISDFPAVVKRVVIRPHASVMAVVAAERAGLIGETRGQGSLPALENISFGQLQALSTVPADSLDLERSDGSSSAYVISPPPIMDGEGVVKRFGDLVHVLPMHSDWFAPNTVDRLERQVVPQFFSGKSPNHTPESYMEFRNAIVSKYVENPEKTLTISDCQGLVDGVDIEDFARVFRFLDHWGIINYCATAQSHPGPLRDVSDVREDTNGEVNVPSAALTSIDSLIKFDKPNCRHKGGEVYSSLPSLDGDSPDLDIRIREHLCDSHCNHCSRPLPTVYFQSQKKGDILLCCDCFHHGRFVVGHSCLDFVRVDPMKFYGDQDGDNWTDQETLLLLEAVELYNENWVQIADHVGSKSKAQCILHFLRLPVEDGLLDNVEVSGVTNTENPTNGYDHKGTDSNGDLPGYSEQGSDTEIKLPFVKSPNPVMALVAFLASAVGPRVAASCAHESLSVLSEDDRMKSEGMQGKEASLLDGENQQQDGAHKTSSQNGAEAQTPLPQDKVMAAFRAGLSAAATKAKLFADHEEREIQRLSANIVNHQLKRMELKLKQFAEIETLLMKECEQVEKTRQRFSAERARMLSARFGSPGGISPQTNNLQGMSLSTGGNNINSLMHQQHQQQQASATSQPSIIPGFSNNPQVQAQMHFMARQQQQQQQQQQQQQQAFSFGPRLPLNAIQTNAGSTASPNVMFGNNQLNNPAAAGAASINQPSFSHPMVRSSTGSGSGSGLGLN

[23] = molecular target: BSH (Arabidopsis thaliana); test: TAP-MS, C-terminal GS tag
[24] = molecular target: DNA-binding bromodomain-containing protein (AT1G20670) (Arabidopsis thaliana); test: TAP-MS, C-terminal GS tag
[25] = molecular target: SWI3B (Arabidopsis thaliana); test: TAP-MS, C-terminal GS tag
[26] = molecular target: SNF2 protein (BRM) (Arabidopsis thaliana); test: TAP-MS, C-terminal GS tag
[27] = molecular target: SWI3A (Arabidopsis thaliana); test: TAP-MS, C-terminal GS tag
[28] = molecular target: unknown protein (AT1G06500) (Arabidopsis thaliana); test: TAP-MS, C-terminal GS tag
[29] = molecular target: T1, actin-related protein 7 (ARP7) (Arabidopsis thaliana); test: TAP-MS, C-terminal GS tag
[30] = molecular target: electron carrier (AT1G32730) (Arabidopsis thaliana); test: TAP-MS, C-terminal GS tag
[31] = molecular target: RD21 (RESPONSIVE TO …ON 21) (Arabidopsis thaliana); test: TAP-MS, C-terminal GS tag
[32] = molecular target: isocitrate dehydrogenase (AT5G03290) (Arabidopsis thaliana); test: TAP-MS, C-terminal GS tag
[33] = molecular target: DNA-binding bromodomain-containing protein, similar to At1g20670 (AT5G55040) (Arabidopsis thaliana); test: TAP-MS, C-terminal GS tag
[34] = molecular target: DNA-binding bromodomain-containing protein (AT1G58025) (Arabidopsis thaliana); test: TAP-MS, C-terminal GS tag
[35] = molecular target: SWI3D (Arabidopsis thaliana); test: TAP-MS, C-terminal GS tag
[36] = molecular target: expressed protein, similar to At3g03460 (AT5G17510) (Arabidopsis thaliana); test: TAP-MS, C-terminal GS tag
[37] = molecular target: T2, actin-related protein 4 (ARP4) (Arabidopsis thaliana); test: TAP-MS, C-terminal GS tag
[38] = molecular target: expressed protein, similar to At4g22320 (AT5G55210) (Arabidopsis thaliana); test: TAP-MS, C-terminal GS tag
[39] = molecular target: LFR (armadillo-repeat protein) (Arabidopsis thaliana); test: TAP-MS, C-terminal GS tag
[40] = molecular target: T3, SWIRM domain-containing protein (SWI3C) (Arabidopsis thaliana); test: TAP-MS, C-terminal GS tag

GS-Swp73B
1: N-GS (times co-purified) [2] | N-GS (times co-purified) [3] | N-GS (times co-purified) [5] | N-GS (times co-purified) [6] | N-GS (times co-purified) [12] | N-GS (times co-purified) [15]
2: N-GS (times co-purified) [1] | N-GS (times co-purified) [7] | N-GS (times co-purified) [8] | N-GS (times co-purified) [10] | N-GS (times co-purified) [11] | N-GS (times co-purified) [13] | N-GS (times co-purified) [14] | N-GS (times co-purified) [17] | N-GS (times co-purified) [18] | N-GS (times co-purified) [19] | N-GS (times co-purified) [20] | N-GS (times co-purified) [21]
3: N-GS (times co-purified) [4] | N-GS (times co-purified) [9] | N-GS (times co-purified) [16] | N-GS (times co-purified) [22]

Swp73B-GS
2: C-GS (times co-purified) [23] | C-GS (times co-purified) [24] | C-GS (times co-purified) [25] | C-GS (times co-purified) [27] | C-GS (times co-purified) [29] | C-GS (times co-purified) [30] | C-GS (times co-purified) [31] | C-GS (times co-purified) [36] | C-GS (times co-purified) [38] | C-GS (times co-purified) [39]
1: C-GS (times co-purified) [26] | C-GS (times co-purified) [28] | C-GS (times co-purified) [32] | C-GS (times co-purified) [33] | C-GS (times co-purified) [34] | C-GS (times co-purified) [35] | C-GS (times co-purified) [37] | C-GS (times co-purified) [40]
